The values that follow come from US20190375855A1 (Memorial Sloan Kettering, published 2019).

This assay addresses T1, Trp1 as expressed by B16 melanoma cells (UniProt P07147 25-537, limits assumed).
T1 construct: whole, on cells; also called Tyrosinase-related protein 1; TYRP1
Put plainly: flow cytometry on permeabilized B16 cells, detection with anti-mouse IgG PE. From the text:
FIG. 2 depicts Trp1 expression profile. B16, B78H1, and B78H1 engineered to express Trp1 on the surface were stained with TA99, TA99 single chain variable region fused to an Fc domain, or isotype control. The cell lines were washed and stained with anti-mouse IgG PE and further analyzed by flow cytometry. B16 was permeabilized before staining since the level of Trp1 expression is suboptimal in the surface in vitro.
An scFv that specifically binds to a mouse Trp1 polypeptide and a human Trp1 polypeptide was generated from a murine monoclonal antibody TA99 that was generated from the TA99 antibody disclosed in International Patent Publication No. WO96/40249. This scFv was cloned into an eGFP cassette. The binding specificity of this scFv to the Trp1 polypeptide was evaluated using a soluble protein comprising this scFv and a Fc domain fused to the scFv. The binding specificity of the scFv-Fc fusion protein to B16 melanoma cells (expressing Trp1), a B16 variant B78H1 (not expressing Trp1), and B78H1-Trp1 (B78H1 engineered to express TRP1 on the surface) was evaluated by flow cytometry. […]

B1: soluble protein comprising the TA99-derived scFv and a Fc domain fused to the scFv (Fc fusion, not shown: a dimerising Fc or GST)
scFv: EVQLQQSGAELVRPGALVKLSCKTSGFNIKDYFLHWVRQRPDQGLEWIGWINPDNGNTVYDPKFQGTASLTADTSSNTVYLQLSGLTSEDTAVYFCTRRDYTYEKAALDYWGQGASVIVSSGGGGSGGGGSGGGGSAFQMSQSPASLSASVGETVTITCRASGNIYNYLAWYQQKQGKSPHLLVYDAKTLADGVPSRFSGSGSGTQYSLKISSLQTEDSGNYYCQHFWSLPFTFGSGTKLEIKAAA
notes: also called scFv-Fc fusion protein; TA99 single chain variable region fused to an Fc domain
With B1, the binding result is “binds”.
